Positions count from the first letter of the chain named. Names may count otherwise.
B1: Chryseobacterium sp-62563 propeptide F99V (protein)
chain: NQDPNLVAKESNETAMKDFGKTVPVGIEKEDGKFKISFMVTAQPYEIKDSKENAAYISMIKTAVENETPIHVFLKANTNEIAKVDKATDDDIRYFKSVVTKEVKEENRK
B2: Chryseobacterium sp-62563 propeptide F99P (protein)
chain: B1 chain with V99P
B3: Chryseobacterium sp-62563 propeptide Y45R (protein)
chain: B1 chain with Y45R, V99F
B4: Chryseobacterium sp-62563 propeptide F99L (protein)
chain: B1 chain with V99L
B5: Chryseobacterium sp-62563 propeptide F99I (protein)
chain: B1 chain with V99I
B6: Chryseobacterium sp-62563 propeptide F99H (protein)
chain: B1 chain with V99H
B7: Chryseobacterium sp-62563 propeptide P69D (protein)
chain: B1 chain with P69D, V99F
B8: Chryseobacterium sp-62563 propeptide P69G (protein)
chain: B1 chain with P69G, V99F
B9: Chryseobacterium sp-62563 propeptide P69L (protein)
chain: B1 chain with P69L, V99F
B10: Chryseobacterium sp-62563 propeptide V98T (protein)
chain: B1 chain with V98T, V99F
B11: Chryseobacterium sp-62563 propeptide V98S (protein)
chain: B1 chain with V98S, V99F
B12: Chryseobacterium sp-62563 propeptide V98R (protein)
chain: B1 chain with V98R, V99F
B13: Chryseobacterium sp-62563 propeptide V98Q (protein)
chain: B1 chain with V98Q, V99F
B14: Chryseobacterium sp-62563 propeptide V98N (protein)
chain: B1 chain with V98N, V99F
B15: Chryseobacterium sp-62563 propeptide V98M (protein)
chain: B1 chain with V98M, V99F
B16: Chryseobacterium sp-62563 propeptide V98K (protein)
chain: B1 chain with V98K, V99F
B17: Chryseobacterium sp-62563 propeptide P69M (protein)
chain: B1 chain with P69M, V99F
B18: Chryseobacterium sp-62563 propeptide V98H (protein)
chain: B1 chain with V98H, V99F
B19: Chryseobacterium sp-62563 propeptide V98G (protein)
chain: B1 chain with V98G, V99F
B20: Chryseobacterium sp-62563 propeptide V98E (protein)
chain: B1 chain with V98E, V99F
B21: Chryseobacterium sp-62563 propeptide V98C (protein)
chain: B1 chain with V98C, V99F
B22: Chryseobacterium sp-62563 propeptide V98A (protein)
chain: B1 chain with V98A, V99F
B23: Chryseobacterium sp-62563 propeptide P69Q (protein)
chain: B1 chain with P69Q, V99F
B24: Chryseobacterium sp-62563 propeptide S97R (protein)
chain: B1 chain with S97R, V99F
B25: Chryseobacterium sp-62563 propeptide K96Y (protein)
chain: B1 chain with K96Y, V99F
B26: Chryseobacterium sp-62563 propeptide K96W (protein)
chain: B1 chain with K96W, V99F
B27: Chryseobacterium sp-62563 propeptide K96V (protein)
chain: B1 chain with K96V, V99F
B28: Chryseobacterium sp-62563 propeptide K96T (protein)
chain: B1 chain with K96T, V99F
B29: Chryseobacterium sp-62563 propeptide K96Q (protein)
chain: B1 chain with K96Q, V99F
B30: Chryseobacterium sp-62563 propeptide K96N (protein)
chain: B1 chain with K96N, V99F
B31: Chryseobacterium sp-62563 propeptide K96M (protein)
chain: B1 chain with K96M, V99F
B32: Chryseobacterium sp-62563 propeptide K96L (protein)
chain: B1 chain with K96L, V99F
B33: Chryseobacterium sp-62563 propeptide P69S (protein)
chain: B1 chain with P69S, V99F
B34: Chryseobacterium sp-62563 propeptide K96I (protein)
chain: B1 chain with K96I, V99F
B35: Chryseobacterium sp-62563 propeptide K96H (protein)
chain: B1 chain with K96H, V99F
B36: Chryseobacterium sp-62563 propeptide K96F (protein)
chain: B1 chain with K96F, V99F
B37: Chryseobacterium sp-62563 propeptide K96E (protein)
chain: B1 chain with K96E, V99F
B38: Chryseobacterium sp-62563 propeptide K96C (protein)
chain: B1 chain with K96C, V99F
B39: Chryseobacterium sp-62563 propeptide F95Y (protein)
chain: B1 chain with F95Y, V99F
B40: Chryseobacterium sp-62563 propeptide F95W (protein)
chain: B1 chain with F95W, V99F
B41: Chryseobacterium sp-62563 propeptide F95V (protein)
chain: B1 chain with F95V, V99F
B42: Chryseobacterium sp-62563 propeptide P69T (protein)
chain: B1 chain with P69T, V99F
B43: Chryseobacterium sp-62563 propeptide F95T (protein)
chain: B1 chain with F95T, V99F
B44: Chryseobacterium sp-62563 propeptide F95S (protein)
chain: B1 chain with F95S, V99F
B45: Chryseobacterium sp-62563 propeptide F95R (protein)
chain: B1 chain with F95R, V99F
B46: Chryseobacterium sp-62563 propeptide F95N (protein)
chain: B1 chain with F95N, V99F
B47: Chryseobacterium sp-62563 propeptide F95M (protein)
chain: B1 chain with F95M, V99F
B48: Chryseobacterium sp-62563 propeptide F95L (protein)
chain: B1 chain with F95L, V99F
B49: Chryseobacterium sp-62563 propeptide F95K (protein)
chain: B1 chain with F95K, V99F
B50: Chryseobacterium sp-62563 propeptide F95I (protein)
chain: B1 chain with F95I, V99F
B51: Chryseobacterium sp-62563 propeptide F95H (protein)
chain: B1 chain with F95H, V99F
B52: Chryseobacterium sp-62563 propeptide F95A (protein)
chain: B1 chain with F95A, V99F
B53: Chryseobacterium sp-62563 propeptide Y94R (protein)
chain: B1 chain with Y94R, V99F

Molecular target: T1, Chryseobacterium sp-62563 deamidase polypeptide (second polypeptide, deamidase domain), wildtype (Chryseobacterium sp-62563)
T1 sequence: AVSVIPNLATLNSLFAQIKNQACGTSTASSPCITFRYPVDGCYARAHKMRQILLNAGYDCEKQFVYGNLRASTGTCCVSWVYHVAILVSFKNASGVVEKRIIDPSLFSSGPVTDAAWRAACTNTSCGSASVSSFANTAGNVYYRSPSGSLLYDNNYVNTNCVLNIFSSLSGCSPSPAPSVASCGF
Assay: cell-based or functional assay

Binder	Relative activity of maturated deamidase (% initial rate)	NanoDSF thermal unfolding temperature [° C.]
B1	> 100	–
B2	33	–
B3	–	78.1
B4	46	–
B5	33	–
B6	> 100	–
B7	82	70.6
B8	35	77
B9	43	81.5
B10	70	–
B11	98	–
B12	> 100	–
B13	> 100	–
B14	> 100	–
B15	41	–
B16	> 100	–
B17	67	79.1
B18	54	–
B19	> 100	–
B20	> 100	–
B21	65	–
B22	68	–
B23	> 100	74.1
B24	30	–
B25	73	–
B26	51	–
B27	41	–

Binder	Relative activity of maturated deamidase (% initial rate)	NanoDSF thermal unfolding temperature [° C.]
B28	34	–
B29	> 100	–
B30	55	–
B31	45	–
B32	50	–
B33	–	77.7
B34	71	–
B35	30	–
B36	95	–
B37	> 100	–
B38	95	–
B39	27	–
B40	58	–
B41	66	–
B42	33	78.5
B43	93	–
B44	> 100	–
B45	> 100	–
B46	85	–
B47	51	–
B48	61	–
B49	> 100	–
B50	58	–
B51	76	–
B52	> 100	–
B53	52	–

From patent publication US20250215412A1 (NOVOZYMES A S, published 2025)
